Assay results reported in PMC6694467.

Biological target: monomeric PKG Iβ that lacks the dimerization domain
Assay: crystal structure; PKG Iβ holoenzyme lacking the dimerization domain, 2.3 Å; inhibited state

- stoichiometry N: 2
Substance: monomeric PKG Iβ that lacks the dimerization domain (domain or fragment)
